Patent publication US10358467B2, “Therapeutic targets for cancer progression” (The Regents of the University of California, priority 2015, dated 2019)

Key:
GST-Gαi3 = target: T1, GST-Gαi3 (Rattus norvegicus, UniProt P08753); test: Competition with His-DAPLE-CT for binding to GST-Gαi3 (pulldown)
T1 construct: made in house; host or cells: E. coli BL21 (DE3)
Method: Purified GST-Gαi3 or GST alone (5 μg) were immobilized on glutathione-Sepharose beads and incubated with binding buffer [50 mM Tris-HCl (pH 7.4), 100 mM NaCl, 0.4% (v:v) Nonidet P-40, 10 mM MgCl2, 5 mM EDTA, 30 μM GDP, 2 mM DTT, protease inhibitor mixture] for 90 min at room temperature as described before (Garcia-Marcos et al, 2011a; Ghosh et al, 2010; Ghosh et al, 2008; Lin et al, 2011). Lysates (˜250 μg) of Cos7 cells expressing appropriate myc-DAPLE constructs or purified His-DAPLE-CT (aa 1650-2028) protein (3 μg) were added to each tube, and binding reactions were carried out for 4 h at 4° C. with constant tumbling in binding buffer [50 mM Tris-HCl (pH 7.4), 100 mM NaCl, 0.4% (v:v) Nonidet P-40, 10 mM MgCl2, 5 mM EDTA, 30 μM GDP, 2 mM DTT]. Beads were washed (4×) with 1 mL of wash buffer [4.3 mM Na2HPO4, 1.4 mM KH2PO4 (pH 7.4), 137 mM NaCl, 2.7 mM KCl, 0.1% (v:v) Tween 20, 10 mM MgCl2, 5 mM EDTA, 30 μM GDP, 2 mM DTT] and boiled in Laemmli's sample buffer. In some experiments the ‘active’ conformation of the G protein was stabilized by replacing GDP in the binding and wash buffers with 30 μM GTPγS or a mixture of 30 μM GDP/30 μM AlCl3/10 mM NaF. Immunoblot quantification was performed by infrared imaging following the manufacturer's protocols using an Odyssey imaging system (Li-Cor Biosciences).

NIH3T3 cells = test: 3D spheroid matrigel invasion assay; assay type: cell-based; details: in response to Wnt5a
Method: NIH3T3 cell invasion assay in 3D culture was performed according to the manufacturer's protocol (Trevigen, Cultrex 3D Spheroid BME Cell Invasion Assay, catalog #3500-096-K). Briefly, non-invasive NIH3T3 cells (˜3000 cells) transfected with empty vector (control) or myc-DAPLEconstructs were incubated first in the Spheroid Formation extracellular matrix (ECM) containing 0.2% FBS for 3 days. Invasion matrix was then added and layered on top with media containing FBS. […] Photographs were analyzed and pseudocolored by Image J to reflect cell density.

[1] = system: β-Catenin/TCF/LEF pathway in DLD1 7TGP cells; test: β-Catenin reporter assay (7TGP); assay type: cell-based, human; details: stable expression, starved and stimulated with Wnt5a, versus vector control
Method: These assays were carried out using the well-established reporter 7×Tcf-eGFP (7TGP) (Fuerer & Nusse, 2010). Stable cells lines expressing this reporter were generated by lentiviral transduction and subsequent selection using standard procedures. Lentiviral infection and selection were performed according to standard procedures. Briefly, 10 cm plates DLD1 cells at 70% confluency were incubated with media containing 8 μg/mL polybrene and 10 μl of lentivirus for 6 h. After 24 hours post infection, selection of puromycin-resistant clones was initiated by adding the antibiotic at 2 μg/ml final concentration. The resultant DLD1-7TGP stable cells were subsequently transfected with various myc-DAPLE constructs and selected for G418 resistance as described earlier in methods. The DLD1-7TGP cells stably expressing myc-DAPLE were incubated overnight at 0.2% FBS, analyzed by fluorescence microscopy, and photographed prior to lysis. Whole cell lysates samples were then boiled in Laemmli's sample buffer and GFP protein expression was monitored by immunoblotting.

DLD1 cells = test: Anchorage-dependent tumor growth assay; assay type: cell-based, human; details: DLD1 cells stably expressing constructs, 2-3 weeks
Method: Anchorage-dependent growth was monitored on solid (plastic) surface as described previously (Franken et al, 2006). Briefly, anchorage-dependent growth was monitored on solid (plastic) surface. Approximately ˜1000 DLD1 cells stably expressing various DAPLE constructs were plated in 6-well plates and incubated in 5% CO2 at 37° C. for ˜2 weeks in 0.2% FBS growth media. Colonies were then stained with 0.005% crystal violet for 1 h. The remaining DLD1 cells were lysed and analyzed by immunoblotting to confirm DAPLE construct expression. Each experiment was analyzed in triplicate.

T1 sequence (P08753 whole entry): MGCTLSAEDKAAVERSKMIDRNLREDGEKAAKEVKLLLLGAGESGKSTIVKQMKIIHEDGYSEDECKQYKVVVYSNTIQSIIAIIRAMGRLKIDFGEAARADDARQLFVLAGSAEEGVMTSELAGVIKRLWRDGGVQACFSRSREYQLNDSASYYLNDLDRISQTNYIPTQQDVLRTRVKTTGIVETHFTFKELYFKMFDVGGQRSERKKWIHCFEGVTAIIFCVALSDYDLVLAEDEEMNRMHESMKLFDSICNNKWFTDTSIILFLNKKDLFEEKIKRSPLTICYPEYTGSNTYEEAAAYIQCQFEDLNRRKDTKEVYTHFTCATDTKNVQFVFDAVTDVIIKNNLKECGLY

| competition with His-DAPLE-CT for binding to GST-Gαi3 (GST-Gαi3) | Molecule | invasion of matrigel by spheroids (NIH3T3 cells) | eGFP signal (Wnt transcriptional activity) [1] | adherent colonies per well (tumor growth) (DLD1 cells) |
| --- | --- | --- | --- | --- |
| competed | KB-752: synthetic GEF peptide similar to the GBA motif (SRVTWYDFLMEDTKSR) [reference compound] | – | – | – |
| competed | His-GIV-CT: His-GIV-CT (aa 1660-1870, containing its GEF motif) (protein, left off: small tags and cut ends) ISETLESRHHKIKTGSPGSEVVTLQQFLEESNKLTSVQIKSSSQENLLDEVMKSLSVSSDFLGKDKPVSCGLARSVSGKTPGDFYDRRTTKPEFLRPGPRKTEDTYFISSAGKPTPGTQGKIKLVKESSLSRQSKDSNPYATLPRASSVISTAEGTTRRTSIHDFLTKDSRLPISVDSPPAAADSNTTAASNVDKVQESRNSKSRSREQQS | – | – | – |
| – | DAPLE-V2-WT: short isoform of DAPLE (SEQ ID NO: 23, 552 aa) expressed in cells (protein, listed as Homo sapiens, myc tag) MSVLSPGDLKPKRGSPHRGSLDRTDASTDLAMRSWPSELGSRTCSTSATTTAPSNSTPIARHPGRTKGYNSDDNLCEPSLEFEVPNHRQYVSRPSSLESSRNTSSNSSPLNLKGSSEQLHGRSESFSSEDLIPSRDLATLPREASTPGRNALGRHEYPLPRNGPLPQEGAQKRGTAPPYVGVRPCSASPSSEMVTLEEFLEESNRSSPTHDTPSCRDDLLSDYFRKASDPPAIGGQPGPPAKKEGAKMPTNFVAPTVKMAAPTSEGRPLKPGQYVKPNFRLTEAEAPPSVAPRQAQPPQSLSLGRPRQAPVPPASHAPASRSASLSRAFSLASADLLRASGPEACKQESPQKLGAPEALGGRETGSHTLQSPAPPSSHSLARERTPLVGKAGSSCQGPGPRSRPLDTRRFSLAPPKEERLAPLHQSATAPAIATAGAGAAAAGSGSNSQLLHFSPAAAPAARTKPKAPPRSGEVATITPVRAGLSLSEGDGVPGQGCSEGLPAKSPGRSPDLAPHLGRALEDCSRGSVSKSSPASPEPGGDPQTVWYEYGCV | Neither the WT nor the FA mutant of DAPLE-V2 could trigger invasion | showed inhibition of eGFP | can inhibit tumor growth |
| – | DAPLE-V2-FA: DAPLE-V2 with F194A mutation disrupting Gαi3 binding, expressed in cells (protein, left off: small tags and cut ends) MSVLSPGDLKPKRGSPHRGSLDRTDASTDLAMRSWPSELGSRTCSTSATTTAPSNSTPIARHPGRTKGYNSDDNLCEPSLEFEVPNHRQYVSRPSSLESSRNTSSNSSPLNLKGSSEQLHGRSESFSSEDLIPSRDLATLPREASTPGRNALGRHEYPLPRNGPLPQEGAQKRGTAPPYVGVRPCSASPSSEMVTLEEALEESNRSSPTHDTPSCRDDLLSDYFRKASDPPAIGGQPGPPAKKEGAKMPTNFVAPTVKMAAPTSEGRPLKPGQYVKPNFRLTEAEAPPSVAPRQAQPPQSLSLGRPRQAPVPPASHAPASRSASLSRAFSLASADLLRASGPEACKQESPQKLGAPEALGGRETGSHTLQSPAPPSSHSLARERTPLVGKAGSSCQGPGPRSRPLDTRRFSLAPPKEERLAPLHQSATAPAIATAGAGAAAAGSGSNSQLLHFSPAAAPAARTKPKAPPRSGEVATITPVRAGLSLSEGDGVPGQGCSEGLPAKSPGRSPDLAPHLGRALEDCSRGSVSKSSPASPEPGGDPQTVWYEYGCV | Neither the WT nor the FA mutant of DAPLE-V2 could trigger invasion | not | – |
